Measured values reported in publication PMC7817830.

Assays:
[1] = target: Flag-tagged WT PKM2 expressed in 32D BCR-ABL cells (UniProt P14618); experiment: SEC; cell lysate of 32D BCR-ABL cells on Superdex 200 10/300GL, 50 mM phosphate, 0.15 M NaCl, pH 7.2; fractions by UV absorbance and western blot
[2] = target: recombinant His-tagged PKM2 after the in vitro SUMOylation reaction (SUMO1 conjugated at K270) (UniProt P14618); experiment: SEC; samples of the in vitro SUMOylation reaction (recombinant PKM2 or PKM1 with or without purified SUMO1, E1 and E2); UV absorbance and western blot of the fractions with anti-PKM2 or anti-PKM1; tetramer, dimer, monomer by molecular weight

Flag-tagged WT PKM2 expressed in 32D BCR-ABL cells, P14618 1-531 (enzyme; other documents disagree on this pair), sequence (P14618 whole entry): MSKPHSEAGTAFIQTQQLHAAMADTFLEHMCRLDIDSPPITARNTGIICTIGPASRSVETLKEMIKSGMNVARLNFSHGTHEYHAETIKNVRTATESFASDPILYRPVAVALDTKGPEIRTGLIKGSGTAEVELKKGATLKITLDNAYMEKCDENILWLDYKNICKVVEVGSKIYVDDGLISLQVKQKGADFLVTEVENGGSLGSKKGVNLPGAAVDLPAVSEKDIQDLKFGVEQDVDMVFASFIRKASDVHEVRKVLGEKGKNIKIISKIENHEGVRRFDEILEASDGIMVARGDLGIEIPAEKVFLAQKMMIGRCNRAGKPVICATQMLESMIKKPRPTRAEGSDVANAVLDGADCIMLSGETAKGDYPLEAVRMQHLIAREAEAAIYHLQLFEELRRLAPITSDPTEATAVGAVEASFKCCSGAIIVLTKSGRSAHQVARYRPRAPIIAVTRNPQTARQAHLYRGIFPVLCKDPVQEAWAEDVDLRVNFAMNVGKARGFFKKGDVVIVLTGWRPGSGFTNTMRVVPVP
recombinant His-tagged PKM2 after the in vitro SUMOylation reaction (SUMO1 conjugated at K270) (from UniProt P14618 1-531; P63165 1-97) (enzyme), sequence (P14618 whole entry): as above
recombinant His-tagged PKM2 after the in vitro SUMOylation reaction (SUMO1 conjugated at K270) (from UniProt P14618 1-531; P63165 1-97) (enzyme), sequence (P63165 1-97): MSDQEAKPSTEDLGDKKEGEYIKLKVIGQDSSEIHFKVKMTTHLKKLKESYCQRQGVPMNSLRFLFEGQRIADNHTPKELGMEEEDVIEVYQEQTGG

| stoichiometry N [1] | stoichiometry N [2] | Substance |
| --- | --- | --- |
| 2 |  | Flag-tagged WT PKM2 expressed in 32D BCR-ABL cells, P14618 1-531 (enzyme; other documents disagree on this pair) |
|  | 2 | recombinant His-tagged PKM2 after the in vitro SUMOylation reaction (SUMO1 conjugated at K270) (from UniProt P14618 1-531; P63165 1-97) (enzyme) |
